From FireProtDB (doi:10.1002/cbic.201402128) come the findings set out here.

First the molecules themselves.
B1: Haloalkane dehalogenase, D4Z2G1 (parent)
chain: MSLGAKPFGEKKFIEIKGRRMAYIDEGTGDPILFQHGNPTSSYLWRNIMPHCAGLGRLIACDLIGMGDSDKLDPSGPERYAYAEHRDYLDALWEALDLGDRVVLVVHDWGSALGFDWARRHRERVQGIAYMEAIAMPIEWADFPEQDRDLFQAFRSQAGEELVLQDNVFVEQVLPGLILRPLSEAEMAAYREPFLAAGEARRPTLSWPRQIPIAGTPADVVAIARDYAGWLSESPIPKLFINAEPGALTTGRMRDFCRTWPNQTEITVAGAHFIQEDSPDEIGAAIAAFVRRLRPA

Variants of B1 are the subject of this data set. The note with it: Sphingobium indicum (strain DSM 16413 / CCM 7287 / MTCC 6362 / UT26 / NBRC 101211 / UT26S); pH 7.5; Thermal; fluorescence; Na-Hepes 50 mM; reversible: no; structure 1MJ5; whole UniProt chain shown.

By Tm is commonly meant the temperature at which the thermal transition is half complete. Consider MSLGAKPFGEKKFIEIKGRRMAYIDEGTGDPILFQHGNPTSSYLWRNIMPHCAGLGRLIACDLIGMGDSDKLDPSGPERYAYAEHRDYLDALWEALRLGDRVVLVVHDWGSALGFDWARRHRERVQGIAYMEAIAMPIEWADFPEQDRDLFQAFRSQAGEELVLQDNVFVEQVLPGLILRPLSEAEMAAYREPFLAAGEARRPTLSWPRQIPIAGTPADVVAIARDYAGWLSESPIPKLFINAEPGALTTGRMRDFCRTWPNQTEITVAGAHFIQEDSPDEIGAAIAAFVRRLRPA [D97R], for which the Tm is 51 °C and the “change of melting temperature, mutant - wild type (higher = more stable)” value (shortened to “change of melting temperature, mutant”) came to 0 °C.

Turning to MSLGAKPFGEKKFIEIKGRRMAYIDEGTGDPILFQHGNPTSSYLWRNIMPHCAGLGRLIACDLIGMGDSDKLDPSGPERYAYAEHRDYLDALWEALDLGDRVVLVVHDWGSALGFDWARRHRERVQGIAYMEAIAMPIEWADFPEQDRDLFQAFRSQAGEELVLQDNVFVEQVLPGLILRPLSEAEMAAYREPFLAAGEARRPTLSWPRQIPIAGTPADVVAIARDYAGWLSSSPIPKLFINAEPGALTTGRMRDFCRTWPNQTEITVAGAHFIQEDSPDEIGAAIAAFVRRLRPA [E233S], the Tm was determined as 51.5 °C and the “change of melting temperature, mutant” value was 0.5 °C.

On to MSLGAKPFGEKKFIEIKGRRMAYIDEGTGDPILFQHGNPTSSYLWRNIMPHCAGLGRLIACDLIGMGDSDKLDPSGPERYAYAEHRDYLDALWEALDLGDRVVLVVHDWGSALGFDWARRHRERVQGIAYMEAIAMPIEWADFPEQDRDLFQAFRSQAGEELVLQDNVFVEQVLPGLILRPLSEAEMAAYREPFLAAGEARRPTLSWPRQIPIAGTPADVVAIARDYAGWLSHSPIPKLFINAEPGALTTGRMRDFCRTWPNQTEITVAGAHFIQEDSPDEIGAAIAAFVRRLRPA [E233H], for which the Tm is 51.5 °C and the “change of melting temperature, mutant” value is 0.5 °C.

With MSLGAKPFGEKKFIEIKGRRMAYIDEGTGDPILFQHGNPTSSYLWRNIMPHCAGLGRLIACDLIGMGDSDKLDPSGPERYAYAEHRDYLDALWEALDLGDRVVLVVHDWGSALGFDWARRHRERVQGIAYMEAIAMPIEWADFPEQDRDLFQAFRSQAGEELVLQDNVFVEQVLPGLILRPLSEAEMAAYREPFLAAGEARRPTLSWPRQIPIAGTPEDVVAIARDYAGWLSESPIPKLFINAEPGALTTGRMRDFCRTWPNQTEITVAGAHFIQEDSPDEIGAAIAAFVRRLRPA [A218E], the midpoint of thermal melting (Tm) amounted to 51 °C and the “change of melting temperature, mutant” value came out at 0 °C.

MSLGAKPFGEKKFIEIKGRRMAYIDEGTGDPILFQHGNPTSSYLWRNIMPHCAGLGRLIACDLIGMGDSDKLDPCGPERYAYAEHRDYLDALWEALDLGDRVVLVVHDWGSALGFDWARRHRERVQGIAYMEAIAMPIEWADFPEQDRDLFQAFRSQAGEELVLQDNVFVEQVLPGLILRPLSEAEMAAYREPFLAAGCARRPTLSWPRQIPIAGTPADVVAIARDYAGWLSESPIPKLFINAEPGALTTGRMRDFCRTWPNQTEITVAGAHFIQEDSPDEIGAAIAAFVRRLRPA [S75C E199C]: the Tm was 48.5 °C and the “change of melting temperature, mutant” value was -2.5 °C.

MSLGAKPFGEKKFIEIKGRRMAYIDEGTGDPILFQHGNPTSSYLWRNIMPHCAGLGRLIACDLIGMGHSDKLDPSGPERYAYAEHRDYLDALWEALDLGDRVVLVVHDWGSALGFDWARRHRERVQGIAYMEAIAMPIEWADFPEQDRDLFQAFRSQAGEELVLQDNVFVEQVLPGLILRPLSEAEMAAYREPFLAAGEARRPTLSWPRQIPIAGTPADVVAIARDYAGWLSESPIPKLFINAEPGALTTGRMRDFCRTWPNQTEITVAGAHFIQEDSPDEIGAAIAAFVRRLRPA [D68H]: the Tm was 52 °C and the “change of melting temperature, mutant” value is 1 °C.

As to MSLGAKPFGEKKFIEIKGRRMAYIDEGTGDPILFQHGNPTSSYLWRNIMPHCAGLGRLIACDLIGMGDSDKLDPSGPERYAYAEHLDYLDALWEALDLGDRVVLVVHDWGSALGFDWARRHRERVQGIAYMEAIAMPIEWADFPEQDRDLFQAFRSQAGEELVLQDNVFVEQVLPGLILRPLSEAEMAAYREPFLAAGEARRPTLSWPRQIPIAGTPADVVAIARDYAGWLSESPIPKLFINAEPGALTTGRMRDFCRTWPNQTEITVAGAHFIQEDSPDEIGAAIAAFVRRLRPA [R86L], the Tm was 49 °C and the “change of melting temperature, mutant” value was -2 °C.

Turning to MSLGAKPFGEKKFIEIKGRRMAYIDEGTGDPILFIHGNPTSSYLWRNIMPHCAGLGRLIACDLIGMGDSDKLDPSGPERYAYAEHRDYLDALWEALDLGDRVVLVVHDWGSALGFDWARRHRERVQGIAYMEAIAMPIEWADFPEQDRDLFQAFRSQAGEELVLQDNVFVEQVLPGLILRPLSEAEMAAYREPFLAAGEARRPTLSWPRQIPIAGTPADVVAIARDYAGWLSESPIPKLFINAEPGALTTGRMRDFCRTWPNQTEITVAGAHFIQEDSPDEIGAAIAAFVRRLRPA [Q35I], the Tm came out at 50.5 °C and the “change of melting temperature, mutant” value is -0.5 °C.

For the variant MSLGAKPFGEKKFIEIKGRRMAYIDEGTGDPILFQHGNPTSSYLWRNIMPHCAGLGRLIACDLIGMGDSDKLDPSGPERYAYAEHRDYLDALWEALDLGDRVVLVVHDWGSALGFDWARRHRERVQGIAYMEAIAMPIEWADFPEQDRDLFQAFRSQAGEELVLQDNVFVEQVLPGLILRPLSEAEMAAYREPFLAAGEARRPTLSWPRQIPIAGTPADVVAIARKYAGWLSESPIPKLFINAEPGALTTGRMRDFCRTWPNQTEITVAGAHFIQEDSPDEIGAAIAAFVRRLRPA [D226K], the Tm was 50.5 °C and the “change of melting temperature, mutant” value is -0.5 °C.

MSLGAKPFGEKKFIEIKGRRMAYIDEGTGDPILFQHGNPTSSYLWRNIMPHCAGLGRLIACDLIGMGDSDKLDPSGPERYAYAEHRDYLDALWEALDLGDRVVLVVHDWGSALGFDWARRHRERVQGIAYMEAIAMPIEWADFPEQDRDLFQAFRSQAGEELVLQDNVFVEQVLPGLILRPLSEAEMAAYREPFLAAGEARRPTLSWPRQIPIAGTPADVVAIARDYAGWLSESPIPKLFINAEPGALTTGRMRDFCRTWPNQTEITVPGAHFIQEDSPDEIGAAIAAFVRRLRPA [A269P]: the Tm was found to be 50 °C and the “change of melting temperature, mutant” value was -1 °C.
